# Results reported in patent publication US20150322128A1 (Sanofi, published 2015).
# Numbered stars: 1 amine (or outer) side, 2 acyl side, 3 side chain; on linkers, the order of the positions; unused ones are H or OH. Square brackets hold non-standard residues; d marks the D form. Side chains are listed from the residue outwards. Ends that are not written are not given here. * marks the point of attachment. γGlu = O=C(O)[C@H](CCC(=O)[*:2])N[*:1]; Stearoyl = CCCCCCCCCCCCCCCCCC(=O)*; Palmitoyl = CCCCCCCCCCCCCCCC(=O)*; Aib = CC(C)(N)C(=O)O
# T1: human GIP receptor (human, UniProt P48546 22-466)
# T1 sequence (looked up): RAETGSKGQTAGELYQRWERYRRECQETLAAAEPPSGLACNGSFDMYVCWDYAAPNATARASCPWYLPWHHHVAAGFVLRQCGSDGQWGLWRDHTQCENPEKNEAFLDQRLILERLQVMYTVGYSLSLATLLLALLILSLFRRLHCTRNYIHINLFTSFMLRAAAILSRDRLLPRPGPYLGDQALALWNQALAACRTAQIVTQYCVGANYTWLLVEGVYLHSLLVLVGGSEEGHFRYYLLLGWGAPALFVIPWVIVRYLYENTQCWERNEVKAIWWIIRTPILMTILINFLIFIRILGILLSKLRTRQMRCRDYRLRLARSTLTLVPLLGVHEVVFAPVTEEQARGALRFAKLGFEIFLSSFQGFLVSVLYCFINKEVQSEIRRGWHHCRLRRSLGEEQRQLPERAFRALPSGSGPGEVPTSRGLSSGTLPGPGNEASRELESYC
# Experiments:
# Test in all cases: cell-based or functional assay
# human GLP-1 receptor = human GLP-1 receptor (human, UniProt P43220 24-463)
# human glucagon receptor = human glucagon receptor (human, UniProt P47871 26-477)
# human GIP receptor = molecular target: T1, human GIP receptor
# human glucagon receptor, sequence (P47871 26-477): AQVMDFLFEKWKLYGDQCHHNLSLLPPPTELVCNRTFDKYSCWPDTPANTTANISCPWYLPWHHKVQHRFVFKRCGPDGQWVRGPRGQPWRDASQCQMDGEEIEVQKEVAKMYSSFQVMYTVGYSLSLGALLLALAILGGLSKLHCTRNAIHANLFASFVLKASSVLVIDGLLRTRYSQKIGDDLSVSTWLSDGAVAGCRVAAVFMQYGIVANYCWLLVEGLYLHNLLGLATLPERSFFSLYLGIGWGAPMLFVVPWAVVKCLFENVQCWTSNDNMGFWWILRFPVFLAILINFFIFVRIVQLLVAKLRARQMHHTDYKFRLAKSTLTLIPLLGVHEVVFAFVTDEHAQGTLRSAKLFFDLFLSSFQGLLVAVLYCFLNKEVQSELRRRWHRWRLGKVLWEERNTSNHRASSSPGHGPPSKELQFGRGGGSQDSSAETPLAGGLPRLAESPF
Binder,EC50 hGLP-1R (human GLP-1 receptor),EC50 hGlucagon-R (human glucagon receptor),EC50 hGIP-R (human GIP receptor)
H[dS]HGTFTSDLSKQK([γGlu-γGlu-Palmitoyl])DEEAARLFIEWL[Aib]K[dA]GPSSGAPPPS-NH2 [SEQ ID NO: 26],0.002 nM,0.0406 nM,5.53 nM
H[dS]QGTFTSDLSKQK([γGlu-γGlu-Palmitoyl])DEEAVRLFIEWL[Aib]AGGPSSGAPPPS-NH2 (N-terminus assumed; SMILES CCCCCCCCCCCCCCCC(=O)N[C@@H](CCC(=O)N[C@@H](CCC(=O)NCCCC[C@H](NC(=O)[C@H](CCC(N)=O)NC(=O)[C@H](CCCCN)NC(=O)[C@H](CO)NC(=O)[C@H](CC(C)C)NC(=O)[C@H](CC(=O)O)NC(=O)[C@H](CO)NC(=O)[C@@H](NC(=O)[C@H](Cc1ccccc1)NC(=O)[C@@H](NC(=O)CNC(=O)[C@H](CCC(N)=O)NC(=O)[C@@H](CO)NC(=O)[C@@H](N)Cc1c[nH]cn1)[C@@H](C)O)[C@@H](C)O)C(=O)N[C@@H](CC(=O)O)C(=O)N[C@@H](CCC(=O)O)C(=O)N[C@@H](CCC(=O)O)C(=O)N[C@@H](C)C(=O)N[C@H](C(=O)N[C@@H](CCCNC(=N)N)C(=O)N[C@@H](CC(C)C)C(=O)N[C@@H](Cc1ccccc1)C(=O)N[C@H](C(=O)N[C@@H](CCC(=O)O)C(=O)N[C@@H](Cc1c[nH]c2ccccc12)C(=O)N[C@@H](CC(C)C)C(=O)NC(C)(C)C(=O)N[C@@H](C)C(=O)NCC(=O)NCC(=O)N1CCC[C@H]1C(=O)N[C@@H](CO)C(=O)N[C@@H](CO)C(=O)NCC(=O)N[C@@H](C)C(=O)N1CCC[C@H]1C(=O)N1CCC[C@H]1C(=O)N1CCC[C@H]1C(=O)N[C@@H](CO)C(N)=O)[C@@H](C)CC)C(C)C)C(=O)O)C(=O)O) [SEQ ID NO: 17],0.0024 nM,0.0471 nM,7.08 nM
HXQGTFTSDLSKQKDEEAARLFIEWLXAXGPSSGAPPPS (D-Ser at 2; Lys 14 side chain K(γE-γE-x53) = (S)-4-Carboxy-4-((S)-4-carboxy-4-hexadecanoylamino-butyrylamino)-butyryl-; Aib at 27; D-Ala at 29; C-terminal amide) [SEQ ID NO: 12],0.0028 nM,0.066 nM,0.336 nM
HXQGTFTSDLSKQKDEEAARLFIEWLXSGGPSSGAPPPS (D-Ser at 2; Lys 14 side chain K(γE-γE-x53) = (S)-4-Carboxy-4-((S)-4-carboxy-4-hexadecanoylamino-butyrylamino)-butyryl-; Aib at 27; C-terminal amide) [SEQ ID NO: 15],0.0018 nM,0.0123 nM,5.5 nM
HXQGTFTSDLSKQKDEEAARLFIEWLXKGGPSSGAPPPS (D-Ser at 2; Lys 14 side chain K(γE-γE-x53) = (S)-4-Carboxy-4-((S)-4-carboxy-4-hexadecanoylamino-butyrylamino)-butyryl-; Aib at 27; C-terminal amide) [SEQ ID NO: 19],0.002 nM,,
HXQGTFTSDLSKQKDEEAARLFIEWLXAGGPSSGAPPPS (D-Ser at 2; Lys 14 side chain K(AEEAc-AEEAc-AEEAc-x70) = [2-(2-{2-[2-(2-{2-[2-(2-Octadecanoylamino-ethoxy)-ethoxy]-acetylamino}-ethoxy)-ethoxy]-acetylamino}-ethoxy)-ethoxy]-acetyl-; Aib at 27; C-terminal amide) [SEQ ID NO: 22],0.0018 nM,0.0064 nM,4.16 nM
HXQGTFTSDLSKQKDEEAARLFIEWLXAGGPSSGAPPPS (D-Ser at 2; Lys 14 side chain K(AEEAc-AEEAc- E-x70) = (2-{2-[2-(2-{2-[(4S)-4-Carboxy-4-octadecanoylamino-butyrylamino]-ethoxy}-ethoxy)-acetylamino]-ethoxy}-ethoxy)-acetyl; Aib at 27; C-terminal amide) [SEQ ID NO: 21],0.001 nM,0.0091 nM,2.45 nM
HXQGTFTSDLSKQKDEEAARLFIEWLXSTGPSSGAPPPS (D-Ser at 2; Lys 14 side chain K(γE-γE-x53) = (S)-4-Carboxy-4-((S)-4-carboxy-4-hexadecanoylamino-butyrylamino)-butyryl-; Aib at 27; C-terminal amide) [SEQ ID NO: 18],0.0036 nM,0.0103 nM,27.5 nM
HXQGTFTSDLSKQKDEEAARLFIEWLXKXGPSSGAPPPS (D-Ser at 2; Lys 14 side chain K(γE-γE-x53) = (S)-4-Carboxy-4-((S)-4-carboxy-4-hexadecanoylamino-butyrylamino)-butyryl-; Aib at 27; D-Ala at 29; C-terminal amide) [SEQ ID NO: 24],0.0024 nM,0.0765 nM,14.1 nM
HXQGTFTSDLSKQKDEEAARLFIEWLXKXGPSSGAPPPS (D-Ser at 2; Lys 14 side chain K(γE-x70) = (S)-4-Carboxy-4-octadecanoylamino-butyryl-; Aib at 27; D-Ala at 29; C-terminal amide) [SEQ ID NO: 25],0.0021 nM,0.0432 nM,8.32 nM
HXQGTFTSDLSKQKDEEAARLFIEWLXAGGPSSGAPPPS (D-Ser at 2; Lys 14 side chain K(AEEAc-AEEAc- E-x53) = (2-{2-[2-(2-{2-[(4S)-4-Carboxy-4-hexadecanoylamino-butyrylamino]-ethoxy}-ethoxy)-acetylamino]-ethoxy}-ethoxy)-acetyl; Aib at 27; C-terminal amide) [SEQ ID NO: 20],0.0043 nM,0.0884 nM,20.2 nM
H[dS]HGTFTSDLSKQK([γGlu-Stearoyl])DEEAARLFIEWL[Aib]AGGPSSGAPPPS-NH2 (N-terminus assumed; SMILES CCCCCCCCCCCCCCCCCC(=O)N[C@@H](CCC(=O)NCCCC[C@H](NC(=O)[C@H](CCC(N)=O)NC(=O)[C@H](CCCCN)NC(=O)[C@H](CO)NC(=O)[C@H](CC(C)C)NC(=O)[C@H](CC(=O)O)NC(=O)[C@H](CO)NC(=O)[C@@H](NC(=O)[C@H](Cc1ccccc1)NC(=O)[C@@H](NC(=O)CNC(=O)[C@H](Cc1c[nH]cn1)NC(=O)[C@@H](CO)NC(=O)[C@@H](N)Cc1c[nH]cn1)[C@@H](C)O)[C@@H](C)O)C(=O)N[C@@H](CC(=O)O)C(=O)N[C@@H](CCC(=O)O)C(=O)N[C@@H](CCC(=O)O)C(=O)N[C@@H](C)C(=O)N[C@@H](C)C(=O)N[C@@H](CCCNC(=N)N)C(=O)N[C@@H](CC(C)C)C(=O)N[C@@H](Cc1ccccc1)C(=O)N[C@H](C(=O)N[C@@H](CCC(=O)O)C(=O)N[C@@H](Cc1c[nH]c2ccccc12)C(=O)N[C@@H](CC(C)C)C(=O)NC(C)(C)C(=O)N[C@@H](C)C(=O)NCC(=O)NCC(=O)N1CCC[C@H]1C(=O)N[C@@H](CO)C(=O)N[C@@H](CO)C(=O)NCC(=O)N[C@@H](C)C(=O)N1CCC[C@H]1C(=O)N1CCC[C@H]1C(=O)N1CCC[C@H]1C(=O)N[C@@H](CO)C(N)=O)[C@@H](C)CC)C(=O)O) [SEQ ID NO: 8],0.0018 nM,0.0048 nM,0.538 nM
H[dS]QGTFTSDLSKQK([γGlu-Stearoyl])EEEAVRLFIEWL[Aib]AGGPSSGAPPPS-NH2 (N-terminus assumed; SMILES CCCCCCCCCCCCCCCCCC(=O)N[C@@H](CCC(=O)NCCCC[C@H](NC(=O)[C@H](CCC(N)=O)NC(=O)[C@H](CCCCN)NC(=O)[C@H](CO)NC(=O)[C@H](CC(C)C)NC(=O)[C@H](CC(=O)O)NC(=O)[C@H](CO)NC(=O)[C@@H](NC(=O)[C@H](Cc1ccccc1)NC(=O)[C@@H](NC(=O)CNC(=O)[C@H](CCC(N)=O)NC(=O)[C@@H](CO)NC(=O)[C@@H](N)Cc1c[nH]cn1)[C@@H](C)O)[C@@H](C)O)C(=O)N[C@@H](CCC(=O)O)C(=O)N[C@@H](CCC(=O)O)C(=O)N[C@@H](CCC(=O)O)C(=O)N[C@@H](C)C(=O)N[C@H](C(=O)N[C@@H](CCCNC(=N)N)C(=O)N[C@@H](CC(C)C)C(=O)N[C@@H](Cc1ccccc1)C(=O)N[C@H](C(=O)N[C@@H](CCC(=O)O)C(=O)N[C@@H](Cc1c[nH]c2ccccc12)C(=O)N[C@@H](CC(C)C)C(=O)NC(C)(C)C(=O)N[C@@H](C)C(=O)NCC(=O)NCC(=O)N1CCC[C@H]1C(=O)N[C@@H](CO)C(=O)N[C@@H](CO)C(=O)NCC(=O)N[C@@H](C)C(=O)N1CCC[C@H]1C(=O)N1CCC[C@H]1C(=O)N1CCC[C@H]1C(=O)N[C@@H](CO)C(N)=O)[C@@H](C)CC)C(C)C)C(=O)O) [SEQ ID NO: 10],0.0065 nM,0.14 nM,0.982 nM
